Laboratory results taken from publication PMC4838857, “Tum/RacGAP functions as a switch activating the Pav/kinesin-6 motor” (Nature Communications, 2016).

Legend:
[1] = biological target: Pav/kinesin-6 (Pavarotti, Pav-KLP), full length with C-terminal 6xHis (Drosophila melanogaster); test: SEC + other: sucrose gradient sedimentation; hydrodynamic analysis (Siegel and Monty) of centralspindlin purified from co-expression: Superose 6 and 5-20% sucrose gradient, 4 °C
[2] = biological target: Pav/kinesin-6 (Pavarotti, Pav-KLP), full length with C-terminal 6xHis (Drosophila melanogaster); test: SEC + other: sucrose gradient sedimentation; hydrodynamic analysis (Siegel and Monty) of the in vitro add-back: equal molar Pav/kinesin-6 and Tum/RacGAP, purified apart, mixed and incubated
[3] = biological target: Pav/kinesin-6 (Pavarotti, Pav-KLP), full length with C-terminal 6xHis (Drosophila melanogaster); test: SEC + other: sucrose gradient sedimentation; hydrodynamic analysis (Siegel and Monty) of each protein alone: Stokes radius by Superose 6, S value on 5-20% sucrose gradient, 9 h at 55,000 r.p.m., 4 °C
[4] = biological target: Pav/kinesin-6 (Pavarotti, Pav-KLP), full length with C-terminal 6xHis (Drosophila melanogaster)
[5] = biological target: Tum/RacGAP (Tumbleweed, RacGAP50C), full length with C-terminal 6xHis (Drosophila melanogaster); test: SEC + other: sucrose gradient sedimentation; hydrodynamic analysis (Siegel and Monty) of the in vitro add-back: equal molar Pav/kinesin-6 and Tum/RacGAP, purified apart, mixed and incubated
[6] = biological target: Tum/RacGAP (Tumbleweed, RacGAP50C), full length with C-terminal 6xHis (Drosophila melanogaster); test: SEC + other: sucrose gradient sedimentation; hydrodynamic analysis (Siegel and Monty) of each protein alone: Stokes radius by Superose 6, S value on 5-20% sucrose gradient, 9 h at 55,000 r.p.m., 4 °C
[7] = biological target: Tum/RacGAP (Tumbleweed, RacGAP50C), full length, untagged, co-expressed with Pav/kinesin-6 (Drosophila melanogaster); test: SEC + other: sucrose gradient sedimentation; hydrodynamic analysis (Siegel and Monty) of centralspindlin purified from co-expression: Superose 6 and 5-20% sucrose gradient, 4 °C
[8] = substrate: Nc1ncnc2c1ncn2[C@@H]1O[C@H](COP(=O)(O)OP(=O)(O)OP(=O)(O)O)[C@@H](O)[C@H]1O; test: microtubule gliding velocity vs [MgATP], Lineweaver-Burk; assay type: biochemical, Drosophila melanogaster; conditions: motility-derived Km, saturating taxol-stabilised microtubules, Mg2+, pH 8.0, 150 mM KCl
Source text: microtubule gliding velocity vs [MgATP], Lineweaver-Burk on centralspindlin (co-expressed Pav/Tum)

Molecule: Pav/kinesin-6 (Pavarotti, Pav-KLP), full length with C-terminal 6xHis (natural protein)
- stoichiometry N [1]: 2 subunits
- stoichiometry N [2]: 2 subunits
- stoichiometry N [3]: 2 subunits

Molecule: Tum1-65 fragment (1-65aa of Tum/RacGAP) with C-terminal 6xHis (domain or fragment)
- MT gliding velocity of Pav+Tum1-65 (in vitro add-back); Pav/kinesin-6 alone 0 [4]: 0.075 μm s^-1

Molecule: Tum/RacGAP (Tumbleweed, RacGAP50C), full length with C-terminal 6xHis (natural protein)
- MT gliding velocity of Pav+Tum (in vitro add-back, equal molar); Pav/kinesin-6 alone 0 [4]: 0.062 μm s^-1
- stoichiometry N [5]: 2 subunits
- stoichiometry N [6]: 2 subunits

Molecule: Tum/RacGAP (Tumbleweed, RacGAP50C), full length, untagged, co-expressed with Pav/kinesin-6 (natural protein)
- MT gliding velocity of centralspindlin (co-expressed Pav/Tum); Pav/kinesin-6 alone 0 [4]: 0.103 μm s^-1
- stoichiometry N [7]: 2 subunits

B1: centralspindlin (co-expressed Pav/Tum) (Drosophila melanogaster) (protein)
chain: MKAVPRTPMRVVPKTPRVHQTVEKQRRDTSDKARDPVNVFCRVRPLQSDADLTSLRVKNSTTIALNPQDQLLQHHKPHNGAQREVQYIFKHVFQPDATQQDVYAAVAQPLVENLLKGRNSLLFTYGVTGSGKTYTMTGNLRHRGIMPRCLDVLFRTISDYQAKKFVFKPDKLNGFEILSEEDALLERQHEMNQRFAGSGRFAFRHKDSDPEIASQASVEPIPLLGLDEDNMYSVFVTYIEIYNNSVYDLLEDSGIQKTLQSKIIREDANRHMFVHGVTEVEVKTVEDALEVFQMGQKRKRMGHTVLNAESSRSHSVFNIRLVQAPTDSQGENVVQDRQNITVSQLSLVDLAGSERSSRTKNTGVRLREAGNINNSLMTLRTCLEYLRENQLAASNGLAPKKVPYRDSKITHMFKNYFDGEGQVSMIVCINPRIEDYDENMQVMKFAEMTQEVQIARATPMKQDLGLTPGRRKANKLFKIAVNNLNELGIPEAKDLEVDVGLVYSLGPDFPAYEMDSPEAQIKIRELMHYLEQRIEKRKKLRANLDIKCDSFRQMLMNLDRDNLQLRTELASLKAVYKQERDRSAALEKKVRIHESSIDVLNNTLSKQERQIEELTFKLNEKENMLTQKEHEKEKQKKKFSSKLAVESDKNKREFELKLREQRVKLQERMRIKDEKLRLVSNILQSEDLPSLPRSQSSENILNEKDRGAYTARTEESSVPATRTDIYATPRHGAAAANNRHRRSRSAGDKWLEHRAANPVPLGTIMQPYLKNRKSVTKLTDLKELTAHGTTKYCLVSQDADTDGDVETKLYKGNVIPTCGGGAQVVFNDVECLKQKSPVHSPTRKRPSNGNISALGGGAVPSTVTSAQDVASRCNLGIEGHSSKKSKI
notes: full-length Pav with C-terminal 6xHis co-expressed with untagged full-length Tum in Sf9 (baculovirus), Ni-NTA and Superose 6; heterotetramer 372 kDa (2 Pav 107 kDa + 2 Tum 65 kDa); cDNA errors in Tum corrected
- Km [8]: 79 ± 13 µM
